B1: Murine IL-10 (ligand)
chain: SRGQYSREDNNCTHFPVGQSHMLLELRTAFSQVKTFFQTKDQLDNILLTDSLMQDFKGYLGCQALSEMIQFYLVEVMPQAEKHGPEIKEHLNSLGEKLKTLRMRLRRCHRFLPCENKSKAVEQVKSDFNKLQDQGVYKAMNEFDIFINCIEAYMMIKMKS
B2: PEG-mIL-10 (ligand)
chain: B1 chain
modifications: pegylated; prepared with the SC-PEG-12K linker; attachment residue not stated

Key:
[1] = molecular target: T1, mIL-10 receptors (R1 and R2) (mouse, UniProt Q61727); experiment: cell-based or functional assay
T1 sequence 1: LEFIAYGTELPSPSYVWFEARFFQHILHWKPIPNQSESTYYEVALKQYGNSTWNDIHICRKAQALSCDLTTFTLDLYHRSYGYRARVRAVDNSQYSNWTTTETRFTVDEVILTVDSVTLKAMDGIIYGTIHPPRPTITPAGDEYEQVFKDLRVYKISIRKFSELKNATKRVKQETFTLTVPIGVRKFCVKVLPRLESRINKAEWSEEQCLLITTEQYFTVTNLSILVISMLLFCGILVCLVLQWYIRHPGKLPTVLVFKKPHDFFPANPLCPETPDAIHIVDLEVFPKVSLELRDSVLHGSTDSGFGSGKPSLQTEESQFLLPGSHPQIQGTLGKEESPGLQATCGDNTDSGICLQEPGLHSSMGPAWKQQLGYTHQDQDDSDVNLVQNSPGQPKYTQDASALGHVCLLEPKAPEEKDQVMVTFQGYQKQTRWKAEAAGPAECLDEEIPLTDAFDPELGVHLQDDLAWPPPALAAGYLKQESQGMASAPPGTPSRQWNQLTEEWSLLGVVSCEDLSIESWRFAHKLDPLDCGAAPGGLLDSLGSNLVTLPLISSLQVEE
T1 sequence 2: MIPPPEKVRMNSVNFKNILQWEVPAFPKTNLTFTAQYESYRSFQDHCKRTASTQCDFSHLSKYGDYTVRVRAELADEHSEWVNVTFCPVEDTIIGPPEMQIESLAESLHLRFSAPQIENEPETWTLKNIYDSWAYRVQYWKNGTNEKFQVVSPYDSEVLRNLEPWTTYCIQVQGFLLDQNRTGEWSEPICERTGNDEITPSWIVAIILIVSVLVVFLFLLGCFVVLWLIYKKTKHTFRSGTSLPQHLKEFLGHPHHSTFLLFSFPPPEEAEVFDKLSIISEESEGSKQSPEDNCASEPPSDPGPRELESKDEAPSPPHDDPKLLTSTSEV

[2] = molecular target: T1, mIL-10 receptors (R1 and R2); experiment: cell-based or functional assay; remark: listed apart in the source

Binder	EC50 (ng/mL) in MC/9 Assay [1]	MC/9 proliferation (Alamar Blue), specific activity [2]
B1	0.571 ng/mL	–
B2	4.04 ng/mL	~7 fold

From US20180250364A1, “Methods of Using Interleukin-10 for Treating Diseases and Disorders” (published 2018)
